{"source": "paper PMC4658667", "biological_target": "CdiI^YPIII immunity protein from Yersinia pseudotuberculosis YPIII, His6-tagged (Yersinia pseudotuberculosis YPIII)", "experiment": "BLI"}
{"substance": "CdiA-CT^YPIII, C-terminal toxin domain of CdiA from Yersinia pseudotuberculosis YPIII (domain or fragment)", "values": [{"measurement": "Kd", "value": 16, "unit": "nM"}]}
